Experiment [1] concerns the target acidic pH binding sites of MEF cells. The experiment is described as follows: competition with 125I-α2M* binding to MEF cells at pH 5.5.
Experiment [2] deals with acidic pH binding sites of PEA-13 cells. Nature of the experiment: competition with 125I-α2M* binding to PEA-13 cells at acidic pH.
Experiment [3] addresses acidic pH binding sites of Mv1Lu cells. The experiment is described as follows: Scatchard plot analysis of 125I-α2M* binding to Mv1Lu cells at pH 5.
For experiment [4] the target is unchanged. The experiment is described as follows: concentration dependence of 125I-α2M* binding to Mv1Lu cells at pH 5.

B1: α2M activated by methylamine (α2M*) (ligand, human, UniProt P01023 24-1474, looked up)
chain: SVSGKPQYMVLVPSLLHTETTEKGCVLLSYLNETVTVSASLESVRGNRSLFTDLEAENDVLHCVAFAVPKSSSNEEVMFLTVQVKGPTQEFKKRTTVMVKNEDSLVFVQTDKSIYKPGQTVKFRVVSMDENFHPLNELIPLVYIQDPKGNRIAQWQSFQLEGGLKQFSFPLSSEPFQGSYKVVVQKKSGGRTEHPFTVEEFVLPKFEVQVTVPKIITILEEEMNVSVCGLYTYGKPVPGHVTVSICRKYSDASDCHGEDSQAFCEKFSGQLNSHGCFYQQVKTKVFQLKRKEYEMKLHTEAQIQEEGTVVELTGRQSSEITRTITKLSFVKVDSHFRQGIPFFGQVRLVDGKGVPIPNKVIFIRGNEANYYSNATTDEHGLVQFSINTTNVMGTSLTVRVNYKDRSPCYGYQWVSEEHEEAHHTAYLVFSPSKSFVHLEPMSHELPCGHTQTVQAHYILNGGTLLGLKKLSFYYLIMAKGGIVRTGTHGLLVKQEDMKGHFSISIPVKSDIAPVARLLIYAVLPTGDVIGDSAKYDVENCLANKVDLSFSPSQSLPASHAHLRVTAAPQSVCALRAVDQSVLLMKPDAELSASSVYNLLPEKDLTGFPGPLNDQDNEDCINRHNVYINGITYTPVSSTNEKDMYSFLEDMGLKAFTNSKIRKPKMCPQLQQYEMHGPEGLRVGFYESDVMGRGHARLVHVEEPHTETVRKYFPETWIWDLVVVNSAGVAEVGVTVPDTITEWKAGAFCLSEDAGLGISSTASLRAFQPFFVELTMPYSVIRGEAFTLKATVLNYLPKCIRVSVQLEASPAFLAVPVEKEQAPHCICANGRQTVSWAVTPKSLGNVNFTVSAEALESQELCGTEVPSVPEHGRKDTVIKPLLVEPEGLEKETTFNSLLCPSGGEVSEELSLKLPPNVVEESARASVSVLGDILGSAMQNTQNLLQMPYGCGEQNMVLFAPNIYVLDYLNETQQLTPEIKSKAIGYLNTGYQRQLNYKHYDGSYSTFGERYGRNQGNTWLTAFVLKTFAQARAYIFIDEAHITQALIWLSQRQKDNGCFRSSGSLLNNAIKGGVEDEVTLSAYITIALLEIPLTVTHPVVRNALFCLESAWKTAQEGDHGSHVYTKALLAYAFALAGNQDKRKEVLKSLNEEAVKKDNSVHWERPQKPKAPVGHFYEPQAPSAEVEMTSYVLLAYLTAQPAPTSEDLTSATNIVKWITKQQNAQGGFSSTQDTVVALHALSKYGAATFTRTGKAAQVTIQSSGTFSSKFQVDNNNRLLLQQVSLPELPGEYSMKVTGEGCVYLQTSLKYNILPEKEEFPFALGVQTLPQTCDEPKAHTSFQISLSVSYTGSRSASNMAIVDVKMVSGFIPLKPTVKMLERSNHVSRTEVSSNHVLIYLDKVSNQTLSLFFTVLQDVPVRDLKPAIVKVYDYYETDEFAIAEYNAPCSKDLGNA
modifications: activated by methylamine; 125I-labelled where used as tracer
As for B1, the IC50 in experiment [1] came to 50 nM; in experiment [2], 120 nM. The Kd in experiment [3] turned out to be 51 nM. The molecule further had a sites/cell in experiment [3] of 1e+06 sites/cell. This molecule also showed a saturating concentration in experiment [4] of 120 nM.

By IC50 is commonly meant the concentration that inhibits the measured activity by half. In general, Kd refers to the equilibrium constant for the complex coming apart.

The values above are taken from patent US20050250692A1.
